Assay [1] concerns the target recombinant anthrax protective antigen (rPA) (Bacillus anthracis, UniProt P13423 30-764). Description: SPR, Biacore 2000, rPA on a CM5 chip, MAb in solution. For orientation: SPR reads the build-up and loss of mass on a sensor chip optically.
For assay [2], the target named is T1, recombinant lethal factor (rLF) (Bacillus anthracis, UniProt P15917 34-809).
T1 sequence: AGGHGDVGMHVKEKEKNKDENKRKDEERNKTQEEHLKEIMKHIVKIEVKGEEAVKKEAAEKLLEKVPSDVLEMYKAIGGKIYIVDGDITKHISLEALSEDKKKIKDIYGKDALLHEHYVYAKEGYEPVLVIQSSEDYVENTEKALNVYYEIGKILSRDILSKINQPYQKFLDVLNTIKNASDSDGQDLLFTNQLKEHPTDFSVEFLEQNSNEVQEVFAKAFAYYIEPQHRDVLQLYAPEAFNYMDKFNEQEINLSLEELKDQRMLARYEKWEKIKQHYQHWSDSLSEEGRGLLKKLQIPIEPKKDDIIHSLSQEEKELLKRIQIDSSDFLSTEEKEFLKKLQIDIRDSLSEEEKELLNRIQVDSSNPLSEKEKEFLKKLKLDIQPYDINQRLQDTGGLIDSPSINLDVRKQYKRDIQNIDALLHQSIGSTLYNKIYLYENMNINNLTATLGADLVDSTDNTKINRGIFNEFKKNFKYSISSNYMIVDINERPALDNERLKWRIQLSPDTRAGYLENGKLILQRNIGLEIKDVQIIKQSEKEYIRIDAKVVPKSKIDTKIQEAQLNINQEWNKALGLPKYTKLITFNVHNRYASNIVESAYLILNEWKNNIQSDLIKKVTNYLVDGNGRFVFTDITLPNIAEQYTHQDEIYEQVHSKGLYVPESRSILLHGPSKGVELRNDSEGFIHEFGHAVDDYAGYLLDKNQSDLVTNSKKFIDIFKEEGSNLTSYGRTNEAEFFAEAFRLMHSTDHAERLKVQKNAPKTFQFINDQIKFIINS
Description: Western immunoblot, 2 µg denatured protein. On the technique in general: A western blot detects proteins with antibodies after separation by electrophoresis.

For assay [3], the target named is bovine serum albumin (BSA) (bovine, UniProt P02769 25-607). The experiment in a line: endpoint ELISA, antigen coated at 100 ng/well. (An ELISA detects its analyte on a solid surface through an enzyme-linked reagent.)
The target in assay [4] is chymotrypsin digested rPA (47 and 37 kDa fragments) (Bacillus anthracis, UniProt P13423 30-343; P13423 344-764). Description: Western immunoblot of chymotrypsin digested rPA.
Sequence of chymotrypsin digested rPA (47 and 37 kDa fragments) (P13423 30-343 limits assumed, chain 1 of 2): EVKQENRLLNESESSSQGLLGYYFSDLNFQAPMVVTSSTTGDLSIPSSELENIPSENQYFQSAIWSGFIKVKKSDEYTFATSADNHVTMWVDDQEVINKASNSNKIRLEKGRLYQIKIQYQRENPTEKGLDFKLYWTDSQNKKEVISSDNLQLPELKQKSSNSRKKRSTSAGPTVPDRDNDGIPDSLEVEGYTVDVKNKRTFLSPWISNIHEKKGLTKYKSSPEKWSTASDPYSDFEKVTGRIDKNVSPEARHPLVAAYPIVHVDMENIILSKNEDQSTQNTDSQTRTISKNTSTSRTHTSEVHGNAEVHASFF
Sequence of chymotrypsin digested rPA (47 and 37 kDa fragments) (P13423 344-764 limits assumed, chain 2 of 2): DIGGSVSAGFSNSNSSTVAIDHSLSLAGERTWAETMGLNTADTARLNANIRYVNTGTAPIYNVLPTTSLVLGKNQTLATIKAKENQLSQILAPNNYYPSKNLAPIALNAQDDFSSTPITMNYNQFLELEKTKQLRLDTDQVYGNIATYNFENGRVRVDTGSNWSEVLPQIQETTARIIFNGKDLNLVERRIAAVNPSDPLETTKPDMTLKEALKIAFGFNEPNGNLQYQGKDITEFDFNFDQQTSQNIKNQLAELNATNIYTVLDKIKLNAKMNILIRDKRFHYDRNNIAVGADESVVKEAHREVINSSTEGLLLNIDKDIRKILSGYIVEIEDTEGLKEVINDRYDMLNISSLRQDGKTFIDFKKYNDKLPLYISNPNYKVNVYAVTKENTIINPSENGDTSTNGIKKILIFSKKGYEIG

Sequence of recombinant anthrax protective antigen (rPA) (P13423 30-764): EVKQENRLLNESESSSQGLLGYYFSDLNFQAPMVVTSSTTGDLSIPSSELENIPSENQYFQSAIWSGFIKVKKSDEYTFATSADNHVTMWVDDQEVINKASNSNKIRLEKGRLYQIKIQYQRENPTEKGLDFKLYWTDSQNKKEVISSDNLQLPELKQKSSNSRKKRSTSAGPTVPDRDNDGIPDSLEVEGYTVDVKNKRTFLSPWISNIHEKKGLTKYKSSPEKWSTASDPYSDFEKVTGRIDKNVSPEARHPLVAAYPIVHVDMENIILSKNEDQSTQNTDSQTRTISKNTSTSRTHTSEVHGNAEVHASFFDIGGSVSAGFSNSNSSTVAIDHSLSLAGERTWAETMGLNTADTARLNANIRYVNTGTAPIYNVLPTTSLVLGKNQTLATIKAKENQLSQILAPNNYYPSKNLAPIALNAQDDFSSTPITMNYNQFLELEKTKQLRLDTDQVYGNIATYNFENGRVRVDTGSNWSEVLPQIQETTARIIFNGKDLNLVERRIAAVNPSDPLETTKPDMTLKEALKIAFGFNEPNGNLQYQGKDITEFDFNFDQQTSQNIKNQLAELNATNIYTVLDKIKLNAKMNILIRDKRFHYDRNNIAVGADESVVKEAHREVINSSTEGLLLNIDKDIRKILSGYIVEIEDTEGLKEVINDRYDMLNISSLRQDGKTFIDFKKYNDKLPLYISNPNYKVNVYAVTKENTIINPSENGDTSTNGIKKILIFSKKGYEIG
Sequence of bovine serum albumin (BSA) (P02769 25-607 limits assumed): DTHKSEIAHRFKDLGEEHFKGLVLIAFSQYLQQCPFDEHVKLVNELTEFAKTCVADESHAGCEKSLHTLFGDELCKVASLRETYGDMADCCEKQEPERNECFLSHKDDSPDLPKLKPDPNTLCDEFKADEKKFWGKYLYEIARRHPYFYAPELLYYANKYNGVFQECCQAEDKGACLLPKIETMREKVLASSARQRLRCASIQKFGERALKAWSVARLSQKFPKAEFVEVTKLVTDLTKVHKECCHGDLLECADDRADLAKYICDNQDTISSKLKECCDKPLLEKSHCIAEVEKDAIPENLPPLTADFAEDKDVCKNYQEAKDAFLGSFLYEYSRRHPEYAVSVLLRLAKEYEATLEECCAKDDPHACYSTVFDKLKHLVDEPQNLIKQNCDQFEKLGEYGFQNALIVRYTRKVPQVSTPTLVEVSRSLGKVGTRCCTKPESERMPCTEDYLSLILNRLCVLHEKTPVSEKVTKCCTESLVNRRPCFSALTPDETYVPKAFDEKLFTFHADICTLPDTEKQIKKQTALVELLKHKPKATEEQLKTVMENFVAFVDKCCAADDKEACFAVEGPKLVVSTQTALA

B1: F20G77 (antibody)
chain 1: EVQLEESGPELVSPGVSVKISCEGSGYTFTDYAMHWVKQSHARGLEWIGVIGSYSGNAHHNLNFKDKATMTVDKSSSTAYMELARLTSDDSAIYYCAY
chain 2: ELVMTQSPLSLPVSLGDQASISCRSSQSIIHSNGDTFLEWFLQKPGQSPKLLIYKVSNRFSGVPDRFSGSGSGTDFTLKISRVEAEDLGVYYCFQGSHVPLTFGAGTKLELK
On to B1, for which, in assay [1], the dissociation constant Kd stood at 0.46 nM, the off-rate constant (koff) is 1.4e-06 s⁻¹ and the kon worked out at 3100 M⁻¹ s⁻¹.

B2: F20G76 (antibody, V domains shown)
VH: EVQLEESGPELVKPGASVKVSCKASGYSFTDYNMYWVKQSHGTSLEWIGVIDPNNGVTSYNQKFKDKATLTADKSSSTAFMHLNSLTSEDSAVYYCSRGGLDYWGQGTTLTVSS
VL: ELVMTQSPLSLPVSLGDQASISCRSSQSIIHSNGDTFLEWFLQKPGQSPKLLIYKVSNRFSGVPDRFSGSGSGTDFTLKISRVEAEDLGVYYCFQGSHVPLTFGAGTKLELKR
In the case of B2, in assay [1], the Kd came to 18.5 nM, the koff amounted to 6.8e-05 s⁻¹ and the kon worked out at 4000 M⁻¹ s⁻¹. For the same molecule, the binding result in assay [2] is recorded as “no binding”. In addition, the binding result in assay [3] is recorded as “no binding”. Also, the binding result in assay [4] is “no binding”.

For orientation: Kd means a measure of binding affinity in units of concentration. One may read the koff as a measure of how fast the partners let go of each other. Broadly, the kon is the second-order rate constant of association.

The values above are taken from patent US20160002321A1 (HER MAJESTY THE QUEEN IN RIGHT OF CANADA AS REPRESENTED BY …, published 2016).
